In the DeepSol protein solubility set:

Assay: soluble on expression in E. coli; label from the status in PepcDB or PDB records

Row | Sequence | soluble on expression in E. coli
1 | MVTKEQVVEALEGIVDPFLHKTLKETSAIKEVTVKPEKEHVSVKIAIVKTGTAEQMQLQSGIVKLVKELGAATVGLRFAEFTEEELAQFAPEQEEEQSESLLSPNSKTTFLAVASGKGGVGKSTVSVNLAVALARLGKKVGIIDADIYGFSVPDMMGIEKRPIVRGDKIIPVERLGVKVISMGFFVEDNAPVIWRGPMLGKMLNHFFTEVEWGDLDYLVLDLPPGTGDVALDVHSMLPSCKEIIVTTPHPTAAFVAARAGAMALRTEHSILGVVENMAYFESKVTGEKEYVFGKGGGDKLATELQTNVLGRIPLQQPDWNKEDFAPSVYEDTHTTGIIYSKIAETVIDKTAVTQK | not soluble
2 | SEKADEKTYDLRDPSQLVALFTENENEDFIKISLSKYIESLIQSHNMASYNIVFLYDETRSISRYHSNQIYEAASSATDKKDILLILHSGGGQIEPAYLISKTCKSLTKKKFVVGIPRRAKSAATLISLGADEIHMGLMSELGPIDPQIGGYPALGLSNALNTLAGLACRFPDSADMFAKYLTDNLNLKDLGYFERVSESASQYAERLLAGKKFPAPSTAQSLANHFVNHYKDHGFVIDSDEATNLLGSNIIKQNTAEYLFANELYKFLDFASF | not soluble
3 | MEFGVPRERSGGEIPERRVPLTPQGVRELVASGHRVYVERGAGEGAGFPDEAYEEAGARLVGREEAFGRPQVVLKVARPTLEEVGLMRKNAVLMAFLHLAVAESPLVEAMAQKGLTAIGYELVGEEGRRPVLKAMSEIAGRMAPQLAGRLLEAPQGPGILLSGLVGIPPADVVVLGAGVLGRAAARAFLGAGASVHLLDRALPPLEEAAREAPGAITALVTQDRLERYVAFADVLVGAVAVPGERTPLLLTRGLLARMRPGSVLLDFSIDQGGVSETSRPGVYQEMGVTHFCLPNVPALVPRTASHALTLTLLPYLLRIQEDPLALPGLRQGAYLLFGEKGGHLE | soluble
4 | NPTEQLLTRFNQAAQGDTGLVDTVHDELSQLVQKQGATPVTLVYLGSSETLQGRDAFMPWNKMKFTERGLATIQKGLDLMANQPMPIQEQQRLQGLPEYQ | not soluble
5 | MGSDKIHHHHHHMFWFKNALIYRLTKSLDWSVENLQSQLQQCAYSPCQQSDMSRFGWSNPLRESESLSFCVGKQLLLVAHKEEKILPAQVIKRELEERIEQLEQKENRKLKKIEKQALKDDIVATLLPRAFSKNQHTALWIDTENNLIYIDTASTKRAEDCLALLRKSLGSLPVVPLAFANEPSLVMTNWVKENSPQWLTVLEEAELKGSQDQAVIRCKQQVLDSEEMIGLLNSGKYITNLSLNWEEHLSFTLNEDASLKRLKFADQIREQNDDISKEDFAQRFDADFVLMTGILAKLTENLLDEFGGEKERL | not soluble
6 | MNDTPDDTFVSGYLLYLLAASSEEASAQFHDHIRAQGLRVPEWRVLACLVDNDAMMITRLAKLSLMEQSRMTRIVDQMDARGLVTRVADAKDKRRVRVRLTDDGRALAESLVASARAHETRLLSALADTDAARIKGVLRTLLDVLDRPRESR | soluble
7 | GMQTKVINFNDKFSLFNQHWSPRVIAEMNDYQFKLVKVEGEFVWHEHADTDEVFIVMEGTLQIAFRDQNITLQAGEMYVIPKGVEHKPMAKEECKIMIIEPR | soluble
8 | MAVVPIRIVGDPVLHTATTPVTVAADGSLPADLAQLIATMYDTMDAANGVGLAANQIGCSLRLFVYDCAADRAMTARRRGVVINPVLETSEIPETMPDPDTDDEGCLSVPGESFPTGRAKWARVTGLDADGSPVSIEGTGLFARMLQHETGHLDGFLYLDRLIGRYARNAKRAVKSHGWGVPGLSWLPGEDPDPFGH | soluble
9 | MLAILYDRIRPDERMLFERAEALGLPYKKVYVPALPMVLGERPKELEGVTVALERCVSQSRGLAAARYLTALGIPVVNRPEVIEACGDKWATSVALAKAGLPQPKTALATDREEALRLMEAFGYPVVLKPVIGSWGRLLAKVTDRAAAEALLEHKEVLGGFQHQLFYIQEYVEKPGRDIRVFVVGERAIAAIYRRSAHWITNTARGGQAENCPLTEEVARLSVKAAEAVGGGVVAVDLFESERGLLVNEVNHTMEFKNSVHTTGVDIPGEILKYAWSLAS | soluble
10 | GQEVTVSCAEGDTGFIYAGLLDVQITDVALDNMPKAPVKVMMNVGNPELAFSFANLPSEGIGLARMEFIINRQIGIHPKALLEFDKQDDELKAEITRRIAGYASPVDFYVDKIAEGVATLAASVYPRKTIVRMSDFKSNEYANL | not soluble
11 | MGSDKIHHHHHHMKVLVTGATGFIGRQVVHRLREAGAELRLASRHPERLGPGQDAMRMPDVDAPTAAFLALARGVTDVVHCAGLNNDEGNATEADFRAANAELSARLAQAAAEQASGRFIQLSSIRAVIGARVSATIDEDTIPDPQCAYGRSKREAEIRVLDAYASHGRSDATVLRLPPVYGTGMQGNLATLMRMADTGLPLPTGALTGTRSLLSAQSTAGAIWHLLSLSGRLRPIHVASDVPPVSIADIVDAFRDGFGRPTRLMAVPAGPLRIAAILLGKRTSWDSLTASQICDPSLLVSEGWLPETGTLERLAEIARLGDAQSPPLR | not soluble
12 | MINLSNLSAVATSVARAALGESNTSKINHAFDVASHIAGQTALRVGNSLLEQINRLNERQQQGLSEILKALRGEKPVDGVHTHSGGGLFKLARAAFDVVSVVWERDKLKPHVMSFLKALDSQGKTLFSLGKEMAKAFAESVQGPDKNNGKTESSPYASFASKVGMSKVVQRLFNELGRPGAERVRRPTSGPAPRPGGAEQQARPETPPRTRPQANGAPPPPPKAEPRPSSGRPGGAQQQARPETPPRSRPQTNSAPPPPRAEPRPASGRPGGAQQQARPETPPRSRPQTNSAPPPPKAEPRPSSGRPGGAQQQARPETPPRSRPQTNNAPPPRSNNTAGASASAKVGESGPAKPAVKPLYEWLGLSDMTASPAAVKKAYYNASMKHHPDKNPGDAGATARFQDISNAFSILSDPEKRKAYDSGRMNEKGQYV | not soluble
13 | MGSYIQMSGIGSRLRQERERLGLSQKVFGEIGGVEANAQGKYESGDRAPKADYLSRVAAKGVDVLYVLTGSRIPIQSGGLSQTEEKVLDCYRALFKEDQDAICRLTSTLAELSASQGERRKAQVRE | soluble
14 | MLKKYTRYSNFRLISQIQFQRHIDIFHAITYDNIDGLVAAFVRNEPFDIKDKNGNTPLHLAAKLNRRLLCRAVCVYAAGLDLWNSKNNDGKTPIEMTDDANIKRDLQSISTSRSSVDSHHMAYNKLLIEKKINENEEQNQNQKVILSLDGGGLRVVLQCAILLAVERELGEPLRNRIHWIAGTSCGGIMASSIGVGIDLADALRLYIIIRKRIFGGNNQKFPKHSALGIETCLQEVMGSKTLMSKCTAHRLVVTTAKVTLAPPQLVLFRSYAPRIDSKEFEQLGYFNPNKILLWKAIRCTTAAPTYFPSFNGMADGALFCNNPCIMVMTEFAKLKKIENYRGKNNTDEIGCVISVGTGIEPSYPINGIDINLTSGLTGITGNWREIIENTKNLITVFLYQCTSSHNVHVGQSREWCHSMQVPFFRFSPHLAAPFELDNCKIEDITNAMFDNEVYIRTEIKQHISDLCRLLKSMPRNTEPCNYSKITGGKGSKVGSPKSDKK | not soluble
15 | MSLSFSMKIKNIPYYVATRVVKRIQSWLGLNTLGARAIVTNAEGHVLLVKHTYQPHWYLPGGGVKKGESTKAAVIRELHEEVGLVVAEQDVILFGIYHHKYLGVNDYPVIYIVKNFTSHVTHSGEIEQIGWFSLDALPEMVSPGTKRRLGEYFDNNPISEKWEGHHHHHH | soluble
16 | MNKILLVDDDRELTSLLKELLEMEGFNVIVAHDGEQALDLLDDSIDLLLLDVMMPKKNGIDTLKALRQTHQTPVIMLTARGSELDRVLGLELGADDYLPKPFNDRELVARIRAILRRSHWSEQQQNNDNGSPTLEVDALVLNPGRQEASFDGQTLELTGTEFTLLYLLAQHLGQVVSREHLSQEVLGKRLTPFDRAIDMHISNLRRKLPDRKDGHPWFKTLRGRGYLMVSAS | soluble
17 | MSLNEKEINYEEVMAKIDPENGIQVEIPRGANTDDIANILREHGVIKYPFWFKFVSKFNGYDGRYKSGKHIVNKDLKYKEIMEILCSNPVTTTVTIIEGKNTDQIADILSEKKVIDKEAFLEACNTEKFDYEFLKDIPENPQRENKLEGYLFPDTYFFDPKAGERAIIEKFLDNFDAKFKPEFYERAKELNMTVDEVIILASIIERETALPEERPIVSSVFHNRLKSSDPNLKKLESCATVQYVLYKTQGKMKEKLSDEDTKIDHPYNTYLYEGLPPGPICCPGLASIEAALYPDEESEYLYFVAKGDGSHEFSRTLAEHLEAVKKYQSNEGHHHHHH | soluble
